Laboratory results published in paper PMC5286483, “Effect of R119G Mutation on Human P5CR1 Dynamic Property and Enzymatic Activity” (BioMed Research International, 2017).
Where a chain is given by its changes, count along the chain named. Numbers in names are those of the source.

B1: Human P5CR1 R119G mutant (enzyme, UniProt P32322 1-319, looked up)
chain: MSVGFIGAGQLAFALAKGFTAAGVLAAHKIMASSPDMDLATVSALRKMGVKLTPHNKETVQHSDVLFLAVKPHIIPFILDEIGADIEDRHIVVSCAAGVTISSIEKKLSAFRPAPRVIGCMTNTPVVVREGATVYATGTHAQVEDGRLMEQLLSSVGFCTEVEEDLIDAVTGLSGSGPAYAFTALDALADGGVKMGLPRRLAVRLGAQALLGAAKMLLHSEQHPGQLKDNVSSPGGATIHALHVLESGGFRSLLINAVEASCIRTRELQSMADQEQVSPAAIKKTILDKVKLDSPAGTALSPSGHTKLLPRSLAPAGKD
notes: Pyrroline-5-carboxylate reductase 1 (P5CR1), human, encoded by PYCR1, with the ARCL-associated mutation R119G; monomer molecular weight printed as 33.3 kDa; Made by PCR mutagenesis of WT-pET28a-P5CR1; also called R119G P5CR1; pET28a-P5CR1-R119G; source: E. coli BL21 (DE3), inclusion bodies, denatured in 6 M urea, purified (Ni2+-chelating column), renatured, SEC
B2: Human P5CR1 R119H mutant (enzyme, UniProt P32322 1-319, looked up)
chain: B1 chain with G119H
notes: Pyrroline-5-carboxylate reductase 1 (P5CR1), human, encoded by PYCR1, with the mutation R119H; source: expressed mostly as inclusion bodies, purified with a Ni2+-chelating column; plasmid constructed 'by the previous method'

Legend:
[1] = molecular target: the molecule itself; assay: SEC; Superdex-75 column (10/300 mm), 20 mM Caps, pH 9.4, 0.5 M NaCl, 0.5 mL/min; refolded R119G mutant
[2] = molecular target: the molecule itself; assay: SEC; R119H mutant (Fig. S4); column and buffer not stated

Protein | stoichiometry N [1] | stoichiometry N [2]
B1 | 2 | –
B2 | – | 2
